What all share (assay): ELISA; semi-quantitative; plate coated with 30 nM protein (GST-tagged cohesin) in 0.1 M Na2CO3 pH 9.6 at 4 °C; His6-tagged dockerin 10 pM-1 μM in TBS with 1 mM CaCl2 and 1% BSA, 1 h, room temperature; anti-6xHis and HRP secondary antibody; fit with Hill equation
For orientation: ELISA stands for enzyme-linked immunosorbent assay.

The target of experiment [1] is BSA (bovine (from the name BSA)) (UniProt P02769).
The target in experiment [2] is GST-Coh1 (from plasmid pGEX-Coh1) (Clostridium thermocellum).
Experiment [3] addresses GST-Cohwt (from plasmid pGEX-Cohwt) (Clostridium thermocellum) (UniProt Q06851).

A value given as a limit tells only on which side of the number the result lay.

UniProt P02769, sequence (P02769 25-607): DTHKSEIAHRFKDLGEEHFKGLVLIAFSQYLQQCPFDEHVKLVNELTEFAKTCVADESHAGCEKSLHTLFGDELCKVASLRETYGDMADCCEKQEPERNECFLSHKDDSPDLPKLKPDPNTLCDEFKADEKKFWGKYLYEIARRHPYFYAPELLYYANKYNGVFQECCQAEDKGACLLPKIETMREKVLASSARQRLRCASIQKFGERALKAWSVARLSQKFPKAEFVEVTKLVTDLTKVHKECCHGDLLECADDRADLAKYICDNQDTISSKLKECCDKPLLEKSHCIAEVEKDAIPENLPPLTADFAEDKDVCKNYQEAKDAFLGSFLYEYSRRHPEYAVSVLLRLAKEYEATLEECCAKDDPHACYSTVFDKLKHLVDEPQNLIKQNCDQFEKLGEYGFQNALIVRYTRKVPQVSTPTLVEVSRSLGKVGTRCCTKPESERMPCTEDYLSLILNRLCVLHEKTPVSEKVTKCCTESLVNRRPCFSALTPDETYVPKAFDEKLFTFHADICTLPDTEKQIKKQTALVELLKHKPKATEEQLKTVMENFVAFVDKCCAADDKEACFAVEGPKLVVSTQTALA

With “MBP-X6b-Docwt-His6 (from plasmid pMAL-Docwt) (from UniProt P51584 733-791) (domain or fragment)”, the Kd is greater than 1 µM in experiment [1], greater than 0.5 µM in experiment [2] and 0.00077 µM in experiment [3].

Broadly, the Kd is a measure of binding affinity in units of concentration. A high value points to lower affinity.
